Laboratory results from article PMC9638933.

Columns and labels:
[1] = target: Kumin (M. tuberculosis Ku without the extended C-terminus) (M. tuberculosis); assay: BLI; Octet RED96, 37°C, 1000 rpm; biotinylated Ku (25 ug/ml) loaded on streptavidin biosensors; LigD, LIG or POL as analyte (12.5 ug/ml), 300 s association, 300 s dissociation; 1x kinetics buffer (0.1% BSA, 0.02% Tween-20, 0.05% sodium azide in PBS); grouped global fit
[2] = target: Kumin (M. tuberculosis Ku without the extended C-terminus) (M. tuberculosis); assay: SEC-MALS; 50 uM protein in 50 mM HEPES pH 8.0, 1 mM EDTA, 200 mM NaCl; Superdex 200 Increase 10/300 GL; MiniDAWN and Optilab
[3] = target: the molecule itself; assay: SEC-MALS; 50 uM protein; 50 mM HEPES pH 8.0, 1 mM EDTA, 200 mM NaCl; Superdex 200 Increase 10/300 GL
[4] = target: T1, LigD (wildtype), Mycobacterium tuberculosis (M. tuberculosis, UniProt P9WNV3 1-759); assay: BLI; Octet RED96, 37°C, 1000 rpm; biotinylated Ku (25 ug/ml) loaded on streptavidin biosensors; LigD, LIG or POL as analyte (12.5 ug/ml), 300 s association, 300 s dissociation; 1x kinetics buffer (0.1% BSA, 0.02% Tween-20, 0.05% sodium azide in PBS); grouped global fit; conditions: both partners purified
T1 construct: The His tag is TEV-cleavable; also called wildtype LigD
T1 sequence (P9WNV3 whole entry): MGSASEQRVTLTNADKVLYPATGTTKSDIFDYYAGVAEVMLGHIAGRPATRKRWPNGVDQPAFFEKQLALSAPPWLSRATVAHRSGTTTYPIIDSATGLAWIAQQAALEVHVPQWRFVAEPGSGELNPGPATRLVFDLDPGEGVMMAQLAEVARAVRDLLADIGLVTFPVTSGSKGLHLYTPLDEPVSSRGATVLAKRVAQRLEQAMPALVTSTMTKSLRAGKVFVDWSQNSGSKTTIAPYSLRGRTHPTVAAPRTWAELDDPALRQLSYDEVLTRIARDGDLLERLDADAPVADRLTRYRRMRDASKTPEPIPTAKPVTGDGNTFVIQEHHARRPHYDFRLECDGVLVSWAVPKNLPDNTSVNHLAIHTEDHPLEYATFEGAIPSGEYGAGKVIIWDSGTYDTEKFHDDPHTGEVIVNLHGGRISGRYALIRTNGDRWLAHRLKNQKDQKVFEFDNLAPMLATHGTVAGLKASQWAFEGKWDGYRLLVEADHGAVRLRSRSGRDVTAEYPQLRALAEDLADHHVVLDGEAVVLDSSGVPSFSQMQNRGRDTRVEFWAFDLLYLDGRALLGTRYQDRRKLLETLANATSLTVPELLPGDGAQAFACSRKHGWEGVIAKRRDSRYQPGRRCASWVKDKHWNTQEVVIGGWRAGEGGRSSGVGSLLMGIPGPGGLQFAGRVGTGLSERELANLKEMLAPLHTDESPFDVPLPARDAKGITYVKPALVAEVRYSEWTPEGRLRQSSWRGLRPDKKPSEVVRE

[5] = target: the molecule itself; assay: SEC-MALS; 50 uM protein in 50 mM HEPES pH 8.0, 1 mM EDTA, 200 mM NaCl; Superdex 200 Increase 10/300 GL; MiniDAWN and Optilab
[6] = target: T2, KuWT (Mycobacterium tuberculosis, UniProt P9WKD9 1-273); assay: EMSA; EMSA: 50 mM Tris-HCl pH 8.0, 50 mM NaCl, 1 mM DTT, 5 mM MgCl2, 4% glycerol, 0.025 mg/ml BSA, 10 nM DNA, 30 C 20 min; FP: 10 mM Tris-HCl pH 8, 10 mM NaCl, 10% glycerol, 1 mM TCEP, 50 nM DNA, 30 C; ternary EMSA: 20 mM Tris-HCl pH 8.0, 5 mM MgCl2, 5% glycerol, 37 C; bridging: 20 mM Tris-HCl pH 7.5, 50 mM KCl, 5 mM EDTA, 1 mM DTT, 5% glycerol, 40 ug/ml BSA, room temperature; conditions: protein: recombinant; tags: His (Ni-NTA purified; pMCSG7); chain copies: 2; label: 5' 6-FAM on strand 1; blunt
T2 sequence: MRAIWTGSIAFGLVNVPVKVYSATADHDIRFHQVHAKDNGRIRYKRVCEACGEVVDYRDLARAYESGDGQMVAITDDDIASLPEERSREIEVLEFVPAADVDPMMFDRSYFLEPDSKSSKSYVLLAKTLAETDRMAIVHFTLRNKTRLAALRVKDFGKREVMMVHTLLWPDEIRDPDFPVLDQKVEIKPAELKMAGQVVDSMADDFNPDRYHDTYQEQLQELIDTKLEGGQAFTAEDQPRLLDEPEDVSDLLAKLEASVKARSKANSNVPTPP

[7] = target: T3, Kucore (Mycobacterium tuberculosis, UniProt P9WKD9 1-238); assay: as above; conditions: protein: recombinant; tags: His (Ni-NTA purified; pMCSG7); chain copies: 2; label: 5' 6-FAM on strand 1; blunt
T3 sequence: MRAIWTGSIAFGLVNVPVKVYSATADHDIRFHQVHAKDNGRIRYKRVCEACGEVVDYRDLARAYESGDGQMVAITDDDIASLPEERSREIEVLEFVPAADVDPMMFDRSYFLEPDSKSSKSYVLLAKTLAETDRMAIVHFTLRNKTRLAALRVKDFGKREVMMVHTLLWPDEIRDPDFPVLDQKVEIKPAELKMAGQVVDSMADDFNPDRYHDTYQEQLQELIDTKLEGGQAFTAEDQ

[8] = target: T4, Kumin (Mycobacterium tuberculosis, UniProt P9WKD9 1-259); assay: as above; conditions: protein: recombinant; tags: His (Ni-NTA purified; pMCSG7); chain copies: 2; label: 5' 6-FAM on strand 1; blunt
T4 sequence: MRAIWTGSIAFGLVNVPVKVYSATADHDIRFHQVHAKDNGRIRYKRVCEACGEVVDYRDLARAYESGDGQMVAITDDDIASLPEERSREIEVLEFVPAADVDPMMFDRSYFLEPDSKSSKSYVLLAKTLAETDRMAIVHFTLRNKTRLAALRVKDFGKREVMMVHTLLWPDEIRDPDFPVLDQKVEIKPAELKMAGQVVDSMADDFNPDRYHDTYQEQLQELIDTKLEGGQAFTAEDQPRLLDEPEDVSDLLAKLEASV

[9] = target: LigD (UniProt P9WNV3 1-759); assay: fluorescence polarization; EMSA: 50 mM Tris-HCl pH 8.0, 50 mM NaCl, 1 mM DTT, 5 mM MgCl2, 4% glycerol, 0.025 mg/ml BSA, 10 nM DNA, 30 C 20 min; FP: 10 mM Tris-HCl pH 8, 10 mM NaCl, 10% glycerol, 1 mM TCEP, 50 nM DNA, 30 C; ternary EMSA: 20 mM Tris-HCl pH 8.0, 5 mM MgCl2, 5% glycerol, 37 C; bridging: 20 mM Tris-HCl pH 7.5, 50 mM KCl, 5 mM EDTA, 1 mM DTT, 5% glycerol, 40 ug/ml BSA, room temperature; conditions: protein: recombinant; tags: His (Ni-NTA purified; pMCSG7); label: 5' 6-FAM on strand 1; blunt
Sequence of LigD (P9WNV3 whole entry): as the sequence (P9WNV3 whole entry) above

[10] = target: T2, KuWT; assay: EMSA; 5 mM Mg2+; EMSA: 50 mM Tris-HCl pH 8.0, 50 mM NaCl, 1 mM DTT, 5 mM MgCl2, 4% glycerol, 0.025 mg/ml BSA, 10 nM DNA, 30 C 20 min; FP: 10 mM Tris-HCl pH 8, 10 mM NaCl, 10% glycerol, 1 mM TCEP, 50 nM DNA, 30 C; ternary EMSA: 20 mM Tris-HCl pH 8.0, 5 mM MgCl2, 5% glycerol, 37 C; bridging: 20 mM Tris-HCl pH 7.5, 50 mM KCl, 5 mM EDTA, 1 mM DTT, 5% glycerol, 40 ug/ml BSA, room temperature; conditions: protein: recombinant; tags: His (Ni-NTA purified; pMCSG7); chain copies: 2; label: 5' 6-FAM on strand 1; blunt
[11] = target: T3, Kucore; assay: as above; conditions: protein: recombinant; tags: His (Ni-NTA purified; pMCSG7); chain copies: 2; label: 5' 6-FAM on strand 1; blunt
[12] = target: T4, Kumin; assay: as above; conditions: protein: recombinant; tags: His (Ni-NTA purified; pMCSG7); chain copies: 2; label: 5' 6-FAM on strand 1; blunt

## LigD (wildtype), Mycobacterium tuberculosis (from UniProt P9WNV3 1-759) (enzyme)
[1]
  Kd: 288 nM

## Kumin (M. tuberculosis Ku without the extended C-terminus) (domain or fragment)
[2]
  stoichiometry N: 2

B1: Mycobacterium tuberculosis Ku, wildtype (natural protein)
chain: MRAIWTGSIAFGLVNVPVKVYSATADHDIRFHQVHAKDNGRIRYKRVCEACGEVVDYRDLARAYESGDGQMVAITDDDIASLPEERSREIEVLEFVPAADVDPMMFDRSYFLEPDSKSSKSYVLLAKTLAETDRMAIVHFTLRNKTRLAALRVKDFGKREVMMVHTLLWPDEIRDPDFPVLDQKVEIKPAELKMAGQVVDSMADDFNPDRYHDTYQEQLQELIDTKLEGGQAFTAEDQPRLLDEPEDVSDLLAKLEASVKARSKANSNVPTPP
notes: The His tag is TEV-cleavable (pMCSG7) and no cleavage is described; also called KuWT
[3]
  stoichiometry N: 2

B2: Mycobacterium tuberculosis Kumin (extended C-terminus removed) (domain or fragment)
chain: MRAIWTGSIAFGLVNVPVKVYSATADHDIRFHQVHAKDNGRIRYKRVCEACGEVVDYRDLARAYESGDGQMVAITDDDIASLPEERSREIEVLEFVPAADVDPMMFDRSYFLEPDSKSSKSYVLLAKTLAETDRMAIVHFTLRNKTRLAALRVKDFGKREVMMVHTLLWPDEIRDPDFPVLDQKVEIKPAELKMAGQVVDSMADDFNPDRYHDTYQEQLQELIDTKLEGGQAFTAEDQPRLLDEPEDVSDLLAKLEASV
modifications: in BLI only: biotin (NHS-LC-Biotin) on K19, K37, K45, K117, K120, K127, K154, K184, K188, K193, K226, K254
notes: Ku of M. tuberculosis, UniProt P9WKD9, residues 1-259 (core domain and minimal C-terminal region); The His tag is TEV-cleavable (pMCSG7) and no cleavage is described; The protein was not biotinylated for SEC-MALS
[3]
  stoichiometry N: 2

B3: Mycobacterium tuberculosis Kucore (entire C-terminus removed) (domain or fragment)
chain: MRAIWTGSIAFGLVNVPVKVYSATADHDIRFHQVHAKDNGRIRYKRVCEACGEVVDYRDLARAYESGDGQMVAITDDDIASLPEERSREIEVLEFVPAADVDPMMFDRSYFLEPDSKSSKSYVLLAKTLAETDRMAIVHFTLRNKTRLAALRVKDFGKREVMMVHTLLWPDEIRDPDFPVLDQKVEIKPAELKMAGQVVDSMADDFNPDRYHDTYQEQLQELIDTKLEGGQAFTAEDQ
modifications: in BLI only: biotin (NHS-LC-Biotin) on K19, K37, K45, K117, K120, K127, K154, K158, K184, K188, K193, K226
notes: Ku of M. tuberculosis, UniProt P9WKD9, residues 1-238 (core domain); The His tag is TEV-cleavable (pMCSG7) and no cleavage is described; The protein was not biotinylated for SEC-MALS; also called Ku core domain
[3]
  stoichiometry N: 2

B4: Ku_(core) (M. tuberculosis Ku core domain, entire C-terminus removed) (domain or fragment)
chain: MRAIWTGSIAFGLVNVPVKVYSATADHDIRFHQVHAKDNGRIRYKRVCEACGEVVDYRDLARAYESGDGQMVAITDDDIASLPEERSREIEVLEFVPAADVDPMMFDRSYFLEPDSKSSKSYVLLAKTLAETDRMAIVHFTLRNKTRLAALRVKDFGKREVMMVHTLLWPDEIRDPDFPVLDQKVEIKPAELKMAGQVVDSMADDFNPDRYHDTYQEQLQELIDTKLEGGQAFTAEDQ
modifications: biotinylated at multiple sites with NHS-LC-Biotin for BLI only (sites listed in Supplementary Table S3)
[4]
  Kd: 200 nM
[5]
  stoichiometry N: 2

B5: 10 bp dsDNA (dsDNA)
DNA 1: CAGGAAGGTG
DNA 2: CACCTTCCTG
[6]
  binding result: no binding
[7]
  binding result: no binding
[8]
  binding result: no binding
[9]
  Kd: 1100 ± 70 nM

B6: 20 bp dsDNA (dsDNA)
DNA 1: CAGGAAGGGAATGTTGTCTG
DNA 2: CAGACAACATTCCCTTCCTG
[9]
  binding result: binds
[10]
  binding result: binds
[11]
  binding result: binds
[12]
  binding result: binds

B7: 15 bp dsDNA (dsDNA)
DNA 1: CAGGAAGGGAATGTT
DNA 2: AACATTCCCTTCCTG
[9]
  binding result: binds
[10]
  Kd: 1630 ± 300 nM

B8: 30 bp dsDNA (dsDNA)
DNA 1: CAGGAGGTGTAGGGAAGGGAATGTTGTCTG
DNA 2: CAGACAACATTCCCTTCCCTACACCTCCTG
[9]
  binding result: binds
[10]
  Kd: 1180 ± 90 nM
